PMC12724136, “Design of antibody structure-guided epitope vaccines in silico to induce potent immune responses against emerging viruses” (Journal of Virology, 2025)

B1: unnamed (parent)
chain 1: MSHRLTCAYSGFSSDIHAVWVRQAAGKGLEWIAYISDSSAYIYYSQSVRGRFTISRDNSRKQVYLQMNSLTTEDSAVYYCTREGSGFAFDYWGKGTGGGGSGGGGSGGGGSVTISATGSSNIGADLSWYLQKTGETPKLLIYKASTRSSGTPPRFSGSTSGSQYTLTISGVQAEDAGDYYCLGDHGGGALTFGGGTK
chain 2: NIEWGDEVDLEM
B2: unnamed (parent)
chain 1: B1 chain 1
chain 2: GYQLASEIRGTIPLSS
B3: unnamed (parent)
chain 1: B1 chain 1
chain 2: DAIGMGSIGVMLAYMVRRKC

Variants of: B1
Assay: indirect ELISA
Conditions: with partner chain of the complex shown, scFv1 protein 50 µg/mL, value read at the highest peptide concentration, parent: 1.3, read off a plot

| Variant | response (Binding activity) |
| --- | --- |
| chain 2 W4A D6A E7A D9A | 0.53 |

Same assay, conditions: with partner chain of the complex shown; peptides 50 µg/mL; scFv1 group of bars; parent: 1.3; read off a plot

| Variant | response (Binding activity) |
| --- | --- |
| chain 2 W4A D6A E7A D9A | 0.52 |

Same assay, conditions: with partner chain of the complex shown; scFv1 50 µg/mL

| Variant | EC50 (lg EC50 (µg/mL)) |
| --- | --- |
| chain 2 W4A D6A E7A D9A | 4.17 |

Same assay, conditions: with partner chain of the complex shown; scFv1 50 µg/mL; value read at the highest peptide concentration, log10 = 2 (µg/mL); parent: 0.77; read off a plot

| Variant | response (Binding activity) |
| --- | --- |
| chain 2 W4A D6A E7A D9A | 0.47 |

Variants of: B2
Assay: indirect ELISA
Conditions: with partner chain of the complex shown, scFv1 protein 50 µg/mL, value read at the highest peptide concentration, parent: 1.6, read off a plot

| Variant | response (Binding activity) |
| --- | --- |
| chain 2 Y2A R9A L14A | 0.63 |

Same assay, conditions: with partner chain of the complex shown; peptides 50 µg/mL; scFv1 group of bars; parent: 1.6; read off a plot

| Variant | response (Binding activity) |
| --- | --- |
| chain 2 Y2A R9A L14A | 0.62 |

Same assay, conditions: with partner chain of the complex shown; scFv1 50 µg/mL

| Variant | EC50 (lg EC50 (µg/mL)) |
| --- | --- |
| chain 2 Y2A R9A L14A | 3.57 |

Same assay, conditions: with partner chain of the complex shown; scFv1 50 µg/mL; value read at the highest peptide concentration, log10 = 2 (µg/mL); parent: 1.9; read off a plot

| Variant | response (Binding activity) |
| --- | --- |
| chain 2 Y2A R9A L14A | 0.58 |

Variants of: B3
Assay: indirect ELISA
Conditions: with partner chain of the complex shown, scFv1 protein 50 µg/mL, value read at the highest peptide concentration, parent: 0.98, read off a plot

| Variant | response (Binding activity) |
| --- | --- |
| chain 2 S7A V10A R17A | 0.46 |

Same assay, conditions: with partner chain of the complex shown; peptides 50 µg/mL; scFv1 group of bars; parent: 0.98; read off a plot

| Variant | response (Binding activity) |
| --- | --- |
| chain 2 S7A V10A R17A | 0.55 |

Same assay, conditions: with partner chain of the complex shown; scFv1 50 µg/mL

| Variant | EC50 (lg EC50 (µg/mL)) |
| --- | --- |
| chain 2 S7A V10A R17A | 3.96 |

Same assay, conditions: with partner chain of the complex shown; scFv1 50 µg/mL; value read at the highest peptide concentration, log10 = 2 (µg/mL); parent: 0.95; read off a plot

| Variant | response (Binding activity) |
| --- | --- |
| chain 2 S7A V10A R17A | 0.47 |
